Measurements: patent US20200308288A1 (OSE IMMUNOTHERAPEUTICS, published 2020)
Numbering of substitutions follows the chain as printed. Each block holds one binder with its values, some of them ahead of it.

What was measured:
[1] = biological target: T1, recombinant hCD127 (Sino Biologicals, reference 10975-H08H) (human, UniProt P16871 21-239); assay: ELISA on immobilised recombinant hCD127 (1 µg/ml) after storage under different conditions
T1 construct: also called rCD127; CD127 protein
T1 chain: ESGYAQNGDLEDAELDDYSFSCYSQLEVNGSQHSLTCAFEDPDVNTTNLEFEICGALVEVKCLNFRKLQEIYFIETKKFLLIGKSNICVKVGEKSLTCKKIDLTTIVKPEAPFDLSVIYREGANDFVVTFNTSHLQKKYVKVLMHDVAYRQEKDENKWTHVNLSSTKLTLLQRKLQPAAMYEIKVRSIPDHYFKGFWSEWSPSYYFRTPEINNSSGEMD
Experimental: Humanized Effi3 antibody (clone VH3VL4) was incubated at 4° C., 37° C., at −80° C. or at room Temperature for 28 days. The binding activity was tested by ELISA assay, recombinant hCD127 (Sino Biologicals, Beijing, China; reference 10975-H08H) was immobilized on plastic at 1 μg/ml and dilutions of supernatant were added to measure binding. […] Increase doses of Mabs were added to measure binding.

[2] = biological target: T1, recombinant hCD127 (Sino Biologicals, …); assay: ELISA, recombinant hCD127 immobilised at 1 µg/ml, purified antibody
Experimental: The binding activity of the anti hCD127 antibody was assessed by ELISA (Enzyme-linked immunosorbent assay). For the ELISA assay, recombinant hCD127 (Sino Biologicals, Beijing, China; reference 10975-H08H) was immobilized on plastic at 1μg/ml and purified antibody were added to measure binding.

EC50 (read off the curve) [1]: ~6 ng/mL
EC50 [2]: 4 ng/mL
B1: Effi3-VH3VL4 (antibody, human IgG1, kappa, V domains shown)
VH: AVQLVESGGGLVQPGGSLKITCAASGFTFTNAAMYWVRQAPGKGLEWVARIRTKANNYATYYADSVKGRFTISRDDSKSTVYLQMDSVKTEDTATYYCIVVVLTTTRDYFDYWGQGVLVTVSS
VL: DIVLTQSPSSLPVTPGEPASISCRSSQDLLTVKGITSLYWFLQKPGQSPKLLIYRMSNRDSGVPDRFSGSGSGTDFTLKISRVEAEDVGTYYCAQFLEYPHTFGAGTKLELKR
notes: Humanized from rat MD707-3; also called Effi3 H3L4; VHvar3+VLvar4

EC50 [2]: 4 ng/mL
B2: Effi3-VH3VL3 (antibody, human IgG1, kappa, V domains shown)
VH: B1 VH
VL: B1 VL with D28S, G73E
notes: Humanized from rat MD707-3; They are built here from the variable and constant entries so that the signal peptide is left out; also called Effi3 H3L3; VHvar3+VLvar3

EC50 [2]: 3.4 ng/mL
B3: MD707-3 (antibody, V domains shown)
VH: AVHLVESGGGLVQPKESLKISCAASGFTFSNAAMYWVRQAPGKGLEWVARIRTKANNYATYYAESVKGRFTISRDDSKSMVYLQMDNVKTDDTAMYYCIVVVLTTTRDYFDYWGQGVMVTVSS
VL: DIVLTQAPLSVSVTPGESASISCRSSQSLLTVKGITSLYWFLQKPGKSPQLLIYRMSNLASGVPDRFRGSGSETDFTLKISKVETEDVGVYYCAQFLEYPHTFGAGTKLELKR
notes: Rat anti-human CD127 antibody; also called MD707-3 chimeric antibody; MD707-3 mAb
